Biological target: mouse ZO-1 expressed in Sf21 insect cells (mouse, UniProt P39447 1-1745)
Assay: pull-down

Sequence of mouse ZO-1 expressed in Sf21 insect cells (P39447 whole entry): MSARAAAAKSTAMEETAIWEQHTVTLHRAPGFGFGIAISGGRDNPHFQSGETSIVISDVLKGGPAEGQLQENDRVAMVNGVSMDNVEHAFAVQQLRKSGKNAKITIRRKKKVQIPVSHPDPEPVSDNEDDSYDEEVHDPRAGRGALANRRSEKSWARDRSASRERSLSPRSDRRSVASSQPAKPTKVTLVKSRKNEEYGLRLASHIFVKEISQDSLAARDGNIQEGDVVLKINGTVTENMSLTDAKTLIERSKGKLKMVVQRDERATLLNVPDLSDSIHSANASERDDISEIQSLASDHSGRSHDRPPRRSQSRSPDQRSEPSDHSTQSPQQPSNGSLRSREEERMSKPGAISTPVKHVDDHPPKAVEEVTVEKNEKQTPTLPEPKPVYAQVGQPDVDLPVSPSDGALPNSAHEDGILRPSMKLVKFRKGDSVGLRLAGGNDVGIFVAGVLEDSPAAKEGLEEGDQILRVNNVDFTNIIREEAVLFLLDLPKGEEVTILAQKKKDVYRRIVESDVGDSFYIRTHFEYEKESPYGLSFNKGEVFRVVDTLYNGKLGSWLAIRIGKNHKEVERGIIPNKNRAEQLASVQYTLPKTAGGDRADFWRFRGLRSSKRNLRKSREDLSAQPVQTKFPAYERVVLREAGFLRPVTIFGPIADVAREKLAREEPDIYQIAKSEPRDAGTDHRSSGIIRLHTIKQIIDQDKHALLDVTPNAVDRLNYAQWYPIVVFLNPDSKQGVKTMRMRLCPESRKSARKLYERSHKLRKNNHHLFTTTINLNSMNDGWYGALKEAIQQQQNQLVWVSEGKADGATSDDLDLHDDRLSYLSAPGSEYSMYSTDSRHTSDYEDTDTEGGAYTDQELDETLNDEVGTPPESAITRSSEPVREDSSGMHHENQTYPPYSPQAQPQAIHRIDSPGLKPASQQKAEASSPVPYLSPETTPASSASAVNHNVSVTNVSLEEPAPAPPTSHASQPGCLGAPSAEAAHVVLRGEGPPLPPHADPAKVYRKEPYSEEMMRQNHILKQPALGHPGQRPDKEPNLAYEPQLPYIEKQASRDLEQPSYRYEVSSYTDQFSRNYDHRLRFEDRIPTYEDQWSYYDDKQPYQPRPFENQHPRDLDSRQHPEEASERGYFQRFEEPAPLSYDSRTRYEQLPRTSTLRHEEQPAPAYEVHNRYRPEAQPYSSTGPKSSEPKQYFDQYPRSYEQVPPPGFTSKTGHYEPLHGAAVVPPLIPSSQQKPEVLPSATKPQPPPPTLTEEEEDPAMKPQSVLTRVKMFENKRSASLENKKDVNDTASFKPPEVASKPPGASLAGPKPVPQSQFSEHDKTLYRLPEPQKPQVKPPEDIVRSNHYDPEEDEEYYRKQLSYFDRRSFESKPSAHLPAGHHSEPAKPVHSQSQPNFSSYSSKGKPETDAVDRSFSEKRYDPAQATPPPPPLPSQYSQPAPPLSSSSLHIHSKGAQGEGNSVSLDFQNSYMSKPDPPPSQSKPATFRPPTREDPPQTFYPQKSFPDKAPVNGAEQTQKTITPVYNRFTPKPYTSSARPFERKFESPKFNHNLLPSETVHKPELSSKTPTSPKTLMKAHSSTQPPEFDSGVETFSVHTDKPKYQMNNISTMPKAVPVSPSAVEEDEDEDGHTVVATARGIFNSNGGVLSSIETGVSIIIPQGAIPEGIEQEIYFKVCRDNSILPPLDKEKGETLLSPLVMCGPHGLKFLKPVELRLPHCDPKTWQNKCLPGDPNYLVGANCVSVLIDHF

B1: GST-XC(1-378), GST fused to Xenopus laevis cingulin residues 1-378 (domain or fragment, UniProt Q9PTD7 1-378, looked up)
chain: MERDIYGDMADQHIPVGQGVQIRFIGDLKENGKPRGKRSKQDSYGVAVRVQGIDGQPFVVLNSGDKAKSSFGVQIKSQEPYLNASNTSPPNYQNYSSKPRGPSRSISSESELPENPYGSRGYRPSSSHYSSASDEEQKPRGNIRGSDGLSSLPRPLQASRREELRRSQSHSSLLEPDVEESYDYDHHYSERSSTLDTTYSQSSRDSAWSRSSQKKIDNGDYPSLGYRSATSQQSTSVSNKTKKNGLSTSSPSNQSNEDIDTKPLSSVDSLINKFDIKGQVRGRTARRSQALKDERKRSQSLDGRKNYHDTADSREIIVEKQNEVQTMREPVNASNRSFNRQTLERGDISKTRLTKEWLDQDREEPVILKQQRTVQSEF
Kd: ~5 nM

From PMC2174252 (The Journal of Cell Biology, 1999)
